Measured values reported in the supplement of paper PMC10567573.

B1: TRIM55 (parent)
chain: ICPICLEMFTKPVVILPCQHNLCR

Variants of: B1
Experiment: protein stability index of a GFP-peptide fusion (GPS, HEK-293T) (PSI 1-6); higher = more stable
Conditions: c terminus: a fixed tail appended
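Note: lentivirally expressed fusions sorted by FACS into six bins by GFP to DsRed ratio, PSI derived from sequencing read proportions per bin multiplied by bin number.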

| Variant | protein stability index |
| --- | --- |
| ICPICLEWFTKPVVILPCQHNLCR | 3.09 |
| ICPICLELFTKPVVILPCQHNLCR | 1.66 |
| ICPICLEGFTKPVVILPCQHNLCR | 2.11 |
| ICPICLEDFTKPVVILPCQHNLCR | 3.58 |
| ICPICLEVFTKPVVILPCQHNLCR | 2.17 |
| ICPICLEAFTKPVVILPCQHNLCR | 2.76 |
| ICPICLEPFTKPVVILPCQHNLCR | 2.71 |
| ICPICLEEFTKPVVILPCQHNLCR | 2.59 |
| ICPICLEFFTKPVVILPCQHNLCR | 2.55 |
| ICPICLEYFTKPVVILPCQHNLCR | 2.82 |
| ICPICLETFTKPVVILPCQHNLCR | 2.73 |
| ICPICLESFTKPVVILPCQHNLCR | 2.59 |
| ICPICLEKFTKPVVILPCQHNLCR | 2.98 |
| ICPICLEHFTKPVVILPCQHNLCR | 2.76 |
| ICPICLEQFTKPVVILPCQHNLCR | 3.31 |
| ICPICLEIFTKPVVILPCQHNLCR | 2.63 |
| ICPICLERFTKPVVILPCQHNLCR | 2.42 |
| ICPICLENFTKPVVILPCQHNLCR | 1.9 |
| ICPICLECFTKPVVILPCQHNLCR | 2.44 |
| ICPICLIMFTKPVVILPCQHNLCR | 1.94 |
| ICPICLDMFTKPVVILPCQHNLCR | 2.35 |
| ICPICLLMFTKPVVILPCQHNLCR | 2.47 |
| ICPICLYMFTKPVVILPCQHNLCR | 2.07 |
| ICPICLPMFTKPVVILPCQHNLCR | 2.13 |

| Variant | protein stability index |
| --- | --- |
| ICPICLVMFTKPVVILPCQHNLCR | 1.42 |
| ICPICLWMFTKPVVILPCQHNLCR | 1.89 |
| ICPICLQMFTKPVVILPCQHNLCR | 2.42 |
| ICPICLSMFTKPVVILPCQHNLCR | 2.19 |
| ICPICLNMFTKPVVILPCQHNLCR | 1.53 |
| ICPICLKMFTKPVVILPCQHNLCR | 1.87 |
| ICPICLMMFTKPVVILPCQHNLCR | 2.09 |
| ICPICLTMFTKPVVILPCQHNLCR | 1.85 |
| ICPICLCMFTKPVVILPCQHNLCR | 1.92 |
| ICPICLGMFTKPVVILPCQHNLCR | 2.52 |
| ICPICLAMFTKPVVILPCQHNLCR | 2.3 |
| ICPICLRMFTKPVVILPCQHNLCR | 2.24 |
| ICPICLHMFTKPVVILPCQHNLCR | 2.29 |
| ICPICLFMFTKPVVILPCQHNLCR | 2.24 |
| ICYICLEMFTKPVVILPCQHNLCR | 1.27 |
| ICGICLEMFTKPVVILPCQHNLCR | 1.26 |
| ICHICLEMFTKPVVILPCQHNLCR | 2.35 |
| ICFICLEMFTKPVVILPCQHNLCR | 1.6 |
| ICSICLEMFTKPVVILPCQHNLCR | 1.75 |
| ICLICLEMFTKPVVILPCQHNLCR | 2.17 |
| ICRICLEMFTKPVVILPCQHNLCR | 1.27 |
| ICNICLEMFTKPVVILPCQHNLCR | 2.13 |
| ICMICLEMFTKPVVILPCQHNLCR | 2.07 |
| ICIICLEMFTKPVVILPCQHNLCR | 3.07 |

| Variant | protein stability index |
| --- | --- |
| ICWICLEMFTKPVVILPCQHNLCR | 1.9 |
| ICVICLEMFTKPVVILPCQHNLCR | 2.21 |
| ICKICLEMFTKPVVILPCQHNLCR | 1.66 |
| ICQICLEMFTKPVVILPCQHNLCR | 1.2 |
| ICTICLEMFTKPVVILPCQHNLCR | 2.45 |
| ICPICLEMFTKRVVILPCQHNLCR | 2.05 |
| ICPICLEMFTKDVVILPCQHNLCR | 2.61 |
| ICPICLEMFTKIVVILPCQHNLCR | 2.23 |
| ICPICLEMFTKQVVILPCQHNLCR | 2.43 |
| ICPICLEMFTKYVVILPCQHNLCR | 1.8 |
| ICPICLEMFTKGVVILPCQHNLCR | 2.25 |
| ICPICLEMFTKCVVILPCQHNLCR | 2.42 |
| ICPICLEMFTKNVVILPCQHNLCR | 2.99 |
| ICPICLEMFTKTVVILPCQHNLCR | 2.34 |
| ICPICLEMFTKWVVILPCQHNLCR | 1.97 |
| ICPICLEMFTKLVVILPCQHNLCR | 2.02 |
| ICPICLEMFTKSVVILPCQHNLCR | 2.59 |
| ICPICLEMFTKFVVILPCQHNLCR | 1.55 |
| ICPICLEMFTKMVVILPCQHNLCR | 2.25 |
| ICPICLEMFTKHVVILPCQHNLCR | 2.04 |
| ICPICLEMFTKEVVILPCQHNLCR | 2.55 |
| ICPICLEMFTKAVVILPCQHNLCR | 2.19 |
| ICPICLEMFTKVVVILPCQHNLCR | 2.29 |
| ICPICLEMFTKKVVILPCQHNLCR | 2.5 |

| Variant | protein stability index |
| --- | --- |
| ICPICLEMFTKPDVILPCQHNLCR | 3.31 |
| ICPICLEMFTKPCVILPCQHNLCR | 2.21 |
| ICPICLEMFTKPAVILPCQHNLCR | 2.37 |
| ICPICLEMFHKPVVILPCQHNLCR | 2.27 |
| ICPICLEMFIKPVVILPCQHNLCR | 1.83 |
| ICPICLEMFCKPVVILPCQHNLCR | 2.08 |
| ICPICLEMFYKPVVILPCQHNLCR | 2.06 |
| ICPICLEMFVKPVVILPCQHNLCR | 1.56 |
| ICPICLEMFAKPVVILPCQHNLCR | 2.23 |
| ICPICLEMFSKPVVILPCQHNLCR | 2.74 |
| ICPICLEMFKKPVVILPCQHNLCR | 2.34 |
| ICPICLEMFWKPVVILPCQHNLCR | 2.27 |
| ICPICLEMFQKPVVILPCQHNLCR | 3.09 |
| ICPICLEMFRKPVVILPCQHNLCR | 2.38 |
| ICPICLEMFEKPVVILPCQHNLCR | 2.59 |
| ICPICLEMFPKPVVILPCQHNLCR | 2.46 |
| ICPICLEMFNKPVVILPCQHNLCR | 2.73 |
| ICPICLEMFFKPVVILPCQHNLCR | 1.74 |
| ICPICLEMFGKPVVILPCQHNLCR | 2.25 |
| ICPICLEMFLKPVVILPCQHNLCR | 2.59 |
| ICPICLEMFDKPVVILPCQHNLCR | 2.48 |
| ICPICLEMFMKPVVILPCQHNLCR | 2.3 |
| ICPICLEMFTHPVVILPCQHNLCR | 2.4 |
| ICPICLEMFTYPVVILPCQHNLCR | 1.69 |

| Variant | protein stability index |
| --- | --- |
| ICPICLEMFTWPVVILPCQHNLCR | 1.93 |
| ICPICLEMFTRPVVILPCQHNLCR | 1.87 |
| ICPICLEMFTVPVVILPCQHNLCR | 1.98 |
| ICPICLEMFTNPVVILPCQHNLCR | 2.32 |
| ICPICLEMFTFPVVILPCQHNLCR | 2.2 |
| ICPICLEMFTIPVVILPCQHNLCR | 2.29 |
| ICPICLEMFTDPVVILPCQHNLCR | 3.28 |
| ICPICLEMFTCPVVILPCQHNLCR | 2.51 |
| ICPICLEMFTGPVVILPCQHNLCR | 2.56 |
| ICPICLEMFTMPVVILPCQHNLCR | 1.94 |
| ICPICLEMFTTPVVILPCQHNLCR | 2.26 |
| ICPICLEMFTAPVVILPCQHNLCR | 3.04 |
| ICPICLEMFTSPVVILPCQHNLCR | 2.67 |
| ICPICLEMFTEPVVILPCQHNLCR | 2.83 |
| ICPICLEMFTLPVVILPCQHNLCR | 1.9 |
| ICPICLEMFTQPVVILPCQHNLCR | 2.6 |
| ICPICLEMFTPPVVILPCQHNLCR | 2.35 |
| ICPICLEMNTKPVVILPCQHNLCR | 2.75 |
| ICPICLEMHTKPVVILPCQHNLCR | 2.82 |
| ICPICLEMTTKPVVILPCQHNLCR | 3.07 |
| ICPICLEMLTKPVVILPCQHNLCR | 2.47 |
| ICPICLEMYTKPVVILPCQHNLCR | 2.18 |
| ICPICLEMQTKPVVILPCQHNLCR | 2.49 |
| ICPICLEMWTKPVVILPCQHNLCR | 2.47 |

| Variant | protein stability index |
| --- | --- |
| ICPICLEMRTKPVVILPCQHNLCR | 2.18 |
| ICPICLEMATKPVVILPCQHNLCR | 2.64 |
| ICPICLEMGTKPVVILPCQHNLCR | 2.52 |
| ICPICLEMETKPVVILPCQHNLCR | 3.15 |
| ICPICLEMITKPVVILPCQHNLCR | 2.77 |
| ICPICLEMDTKPVVILPCQHNLCR | 3.1 |
| ICPICLEMMTKPVVILPCQHNLCR | 2.51 |
| ICPICLEMSTKPVVILPCQHNLCR | 2.75 |
| ICPICLEMCTKPVVILPCQHNLCR | 2.81 |
| ICPICLEMKTKPVVILPCQHNLCR | 3.63 |
| ICPICLEMVTKPVVILPCQHNLCR | 2.86 |
| ICPICLEMPTKPVVILPCQHNLCR | 2.85 |
| ICPRCLEMFTKPVVILPCQHNLCR | 2.87 |
| ICPYCLEMFTKPVVILPCQHNLCR | 2.69 |
| ICPPCLEMFTKPVVILPCQHNLCR | 1.94 |
| ICPVCLEMFTKPVVILPCQHNLCR | 2.51 |
| ICPWCLEMFTKPVVILPCQHNLCR | 2.34 |
| ICPLCLEMFTKPVVILPCQHNLCR | 1.78 |
| ICPNCLEMFTKPVVILPCQHNLCR | 2.25 |
| ICPSCLEMFTKPVVILPCQHNLCR | 2.72 |
| ICPTCLEMFTKPVVILPCQHNLCR | 2.31 |
| ICPMCLEMFTKPVVILPCQHNLCR | 1.86 |
| ICPGCLEMFTKPVVILPCQHNLCR | 2.03 |
| ICPCCLEMFTKPVVILPCQHNLCR | 1.83 |

| Variant | protein stability index |
| --- | --- |
| ICPQCLEMFTKPVVILPCQHNLCR | 3.02 |
| ICPKCLEMFTKPVVILPCQHNLCR | 2.74 |
| ICPDCLEMFTKPVVILPCQHNLCR | 2.49 |
| ICPHCLEMFTKPVVILPCQHNLCR | 2.26 |
| ICPACLEMFTKPVVILPCQHNLCR | 2.07 |
| ICPECLEMFTKPVVILPCQHNLCR | 2.33 |
| ICPFCLEMFTKPVVILPCQHNLCR | 2.67 |
| ICPIYLEMFTKPVVILPCQHNLCR | 2.3 |
| ICPIFLEMFTKPVVILPCQHNLCR | 1.57 |
| ICPIALEMFTKPVVILPCQHNLCR | 1.93 |
| ICPIMLEMFTKPVVILPCQHNLCR | 2.09 |
| ICPIDLEMFTKPVVILPCQHNLCR | 2.05 |
| ICPIWLEMFTKPVVILPCQHNLCR | 1.6 |
| ICPIVLEMFTKPVVILPCQHNLCR | 2.14 |
| ICPIKLEMFTKPVVILPCQHNLCR | 3.33 |
| ICPIPLEMFTKPVVILPCQHNLCR | 2.07 |
| ICPIHLEMFTKPVVILPCQHNLCR | 1.15 |
| ICPIRLEMFTKPVVILPCQHNLCR | 1.22 |
| ICPINLEMFTKPVVILPCQHNLCR | 2.01 |
| ICPIQLEMFTKPVVILPCQHNLCR | 1.18 |
| ICPITLEMFTKPVVILPCQHNLCR | 1.73 |
| ICPIELEMFTKPVVILPCQHNLCR | 2.28 |
| ICPISLEMFTKPVVILPCQHNLCR | 2.38 |
| ICPILLEMFTKPVVILPCQHNLCR | 1.72 |

| Variant | protein stability index |
| --- | --- |
| ICPIGLEMFTKPVVILPCQHNLCR | 1.8 |
| ICPICFEMFTKPVVILPCQHNLCR | 2.48 |
| ICPICIEMFTKPVVILPCQHNLCR | 2.32 |
| ICPICWEMFTKPVVILPCQHNLCR | 2.77 |
| ICPICAEMFTKPVVILPCQHNLCR | 2.03 |
| ICPICREMFTKPVVILPCQHNLCR | 2.22 |
| ICPICHEMFTKPVVILPCQHNLCR | 2.38 |
| ICPICMEMFTKPVVILPCQHNLCR | 2.45 |
| ICPICSEMFTKPVVILPCQHNLCR | 2.52 |
| ICPICNEMFTKPVVILPCQHNLCR | 2.94 |
| ICPICDEMFTKPVVILPCQHNLCR | 2.79 |
| ICPICTEMFTKPVVILPCQHNLCR | 2.51 |
| ICPICVEMFTKPVVILPCQHNLCR | 1.95 |
| ICPICKEMFTKPVVILPCQHNLCR | 2.81 |
| ICPICQEMFTKPVVILPCQHNLCR | 1.99 |
| ICPICYEMFTKPVVILPCQHNLCR | 2.34 |
| ICPICCEMFTKPVVILPCQHNLCR | 2.39 |
| ICPICGEMFTKPVVILPCQHNLCR | 2.25 |
| ICPICPEMFTKPVVILPCQHNLCR | 2.69 |
| ICPICEEMFTKPVVILPCQHNLCR | 3.49 |
